Test results from the supplement of paper PMC12042874.
± gives the uncertainty stated by the source.

Assay: amyloid nucleation score (Sup35N fusion, yeast selection) (log enrichment); library NNK1; higher = more nucleation; inactive = no reads after selection
Outline: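 Using DiMSum, nucleation scores were taken as the log enrichment of output over input reads, centred on the mode score of non-aggregating sequences. The input and output reads came from Illumina sequencing of plasmid inserts, with sequences under 100 input reads excluded. The yeast were psi-negative, expressed Sup35N fused to peptides of 20 random codons, were induced with 100 μM copper sulfate for 24 hours, and were grown 7 days at 30°C on medium lacking adenine and uracil.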

HVYSSVLCQQD and HWLGYVVLDLFDWPYCMIDL are within error of each other in amyloid nucleation score: 0.717 ± 0.65 for the first, 1.38 ± 0.5 for the second.

HWPGLVEYGLGWLRGRLVMG and HYGSWLCELDVVLYCDCSVM are within error of each other in amyloid nucleation score: 0.139 ± 0.6 for the first, 0.021 ± 0.62 for the second.

Going from HYHFDTACVWCDYSVHGNKD to HYLCPVACRGRFVVSQPVNI, the amyloid nucleation score falls from 7.38 ± 0.057 to -1.14 ± 1.5.

Going from HYMMADLGFWQYP to HYTLCCKFFNQHVGHAMQNE, the amyloid nucleation score rises from 0.138 ± 0.94 to 1.87 ± 0.51.

HYVKVRFRNRSVVYALIGGV and HYVYRGQLRGHACKGWSYFG are within error of each other in amyloid nucleation score: 0.752 ± 0.54 for the first, 0.531 ± 0.51 for the second.

Compared with IAAVQ, IACFFQT is higher in amyloid nucleation score: 0.162 ± 0.89 for the first, 1.66 ± 0.21 for the second.

IARAVSSESASVWVKDT and IASLRIIDSIQFISVNSCYG are within error of each other in amyloid nucleation score: -1.62 ± 2.7 for the first, 0.356 ± 0.4 for the second.

First: ICCISKILLFCISM
Second: ICDINQCRMAFYLCFLLREY
The amyloid nucleation score of the first is higher: 6.53 ± 0.091 for the first, 3.35 ± 0.099 for the second.

ICEVSLCYR and ICGYWSLKVVCRMCHPYGNG are within error of each other in amyloid nucleation score: 0.2 ± 1 for the first, -1.17 ± 0.85 for the second.

ICKLRNSTGSTRIT and ICNPGVS are within error of each other in amyloid nucleation score: 0.227 ± 0.45 for the first, 0.71 ± 0.8 for the second.

ICSGGYLVWELPSGTADQVM and ICSVRSELNSSTRC are within error of each other in amyloid nucleation score: 0.25 ± 0.48 for the first, 0.803 ± 0.48 for the second.

ICVGGNGADCFKMTTGGQLC and ICVRMSKFGCWTFSVKRGWQ are within error of each other in amyloid nucleation score: -0.481 ± 0.5 for the first, 0.335 ± 0.77 for the second.

Compared with IDCGIVRWKNRCGAYAFGVD, IDFYVCDMC is higher in amyloid nucleation score: -1.52 ± 2.4 for the first, 7.857 ± 0.058 for the second.

IDNTLIIDFLFLCNVRTFLR and IDWQLTSLDQGSCFLA are within error of each other in amyloid nucleation score: -0.162 ± 0.24 for the first, -0.468 ± 0.88 for the second.

Going from IELPRFYILVNFYGTLSLSL to IENDGMSRAFC, the amyloid nucleation score falls from 3.83 ± 0.12 to 0.635 ± 0.67.

IEVGYLSTCEFLVRMRKL and IFALWTHKTPRQIAPLGTQK are within error of each other in amyloid nucleation score: 0.346 ± 0.51 for the first, -0.835 ± 1.3 for the second.

IFCITGAGLLDRCSSRTLAS and IFCVMVLSWSAVDPALSVA are within error of each other in amyloid nucleation score: -0.175 ± 0.41 for the first, -1.03 ± 0.81 for the second.

IFEWFVPLEWSV and IFLVCVSKN are within error of each other in amyloid nucleation score: 0.012 ± 1.4 for the first, 0.601 ± 0.35 for the second.

First: IFVYRRRMGSIV
Second: IFYFVL
The amyloid nucleation score of the first is lower: 1.08 ± 0.32 for the first, 6.8 ± 0.074 for the second.

IGLKKGHYNLILHYYFVWKV and IGMWSHWR are within error of each other in amyloid nucleation score: 0.505 ± 0.51 for the first, 0.137 ± 0.39 for the second.

IGQGFNCIR and IGYCRGHAYKMRYFSVRWFV are within error of each other in amyloid nucleation score: -0.083 ± 1.4 for the first, -1.25 ± 1.7 for the second.

Going from IGYFWCCRLETANIVFNFVW to IHDAYVTESGYWVDV, the amyloid nucleation score rises from -0.724 ± 1.3 to 1.29 ± 0.66.

IHHSLHYPLYSWKSNWRTWG and IHRLSARCRLNI are within error of each other in amyloid nucleation score: -0.353 ± 0.61 for the first, 0.657 ± 0.42 for the second.

IIFVEWNSGRAC and IIGQLRI are within error of each other in amyloid nucleation score: -0.526 ± 0.51 for the first, 0.454 ± 0.66 for the second.

IIGQYMQFAYFSVDRTL and IIILYMLRPAMSGWDVFACC are within error of each other in amyloid nucleation score: 0.871 ± 0.38 for the first, 0.627 ± 0.18 for the second.

IIIRCKSVVA and IILYVLANFIMWWREVFNPK are within error of each other in amyloid nucleation score: -0.656 ± 1.9 for the first, 0.218 ± 0.48 for the second.

IIMVRLFSRNGVEDC and IINKS are within error of each other in amyloid nucleation score: 1.61 ± 0.12 for the first, -0.766 ± 2.4 for the second.

First: IIRDSFKNRPETAYTHRTWD
Second: IIRFTTFPCFNVR
The amyloid nucleation score of the first is lower: 1.13 ± 0.15 for the first, 2.1 ± 0.13 for the second.

Compared with IIRFWLTSVVIYMSFLCRGR, IISLVNVWQNMCR is higher in amyloid nucleation score: -1.2 ± 1.9 for the first, 5.15 ± 0.077 for the second.

First: IISPYHLLLIKYRSSCSLLH
Second: IITCRSASETMWFSCFDGLA
The amyloid nucleation score of the first is lower: 0.985 ± 0.33 for the first, 2.95 ± 0.17 for the second.

IKCPRLK and IKGFALVWTPFGLAFFYRG are within error of each other in amyloid nucleation score: -0.466 ± 0.66 for the first, 0.113 ± 0.95 for the second.

Going from IKPDWKMKNRDGTTTKLI to IKRKSAESNGCSLYLYDSLK, the amyloid nucleation score falls from 2.6 ± 0.093 to -0.189 ± 0.43.

IKWANREALLLWVELGRLRW and IKYVQIGRRRLKWGGERRPL are within error of each other in amyloid nucleation score: -0.66 ± 0.84 for the first, 0.311 ± 0.37 for the second.

ILCCLMSFWDVRKFFFNQKA and ILCKVPVVASSNGS are within error of each other in amyloid nucleation score: -0.722 ± 0.41 for the first, -0.35 ± 0.5 for the second.

ILFMLECGMSTTSCHKIRVC and ILGQYGALYSIGTHWFLFVI are within error of each other in amyloid nucleation score: -0.157 ± 0.36 for the first, -0.755 ± 0.37 for the second.

First: ILHIEDAVMADWMHILMGSR
Second: ILIAIMNFARSEVVTNGHIR
The amyloid nucleation score of the first is lower: 0.571 ± 0.35 for the first, 2.13 ± 0.41 for the second.

ILICQCLMLACGRVFSFYLV and ILKSSGICFDGLPTKFNL are within error of each other in amyloid nucleation score: -0.328 ± 0.57 for the first, 0.127 ± 0.25 for the second.

ILLGYGQSMSRHIPTDKNEL and ILLPWGMCWWMLCR are within error of each other in amyloid nucleation score: -0.79 ± 0.74 for the first, 0.036 ± 0.55 for the second.

Going from ILLVSNEEISLCYCVYLGWM to ILQFFDILSIYVCGWEHEL, the amyloid nucleation score rises from 5.729 ± 0.056 to 6.273 ± 0.053.

Work on ILQIYLMWQVW yielded an amyloid nucleation score of 4.85 ± 0.05.

In the case of HWCYVLNS, the amyloid nucleation score is reported as “inactive”.
With ICHCGRHAVHRRHTCHWTLG the amyloid nucleation score was “inactive”.
For ICLESNRFI, the amyloid nucleation score was “inactive”.
With IECPMAYTKTYFVYESEKRN the amyloid nucleation score was “inactive”.
In the case of IEWVPTT, the amyloid nucleation score is reported as “inactive”.
In the case of IFYFELPKFCKIKDISSKWV, the amyloid nucleation score is reported as “inactive”.
With ILCFFRECLLDWVSLGRFIV the amyloid nucleation score was “inactive”.
